In a protein production outcome set (Wang et al. 2014):

Assay: label from the status in PepcDB records
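Also: failed if final PepcDB status was selected cloned or expressed and not failed if soluble or beyond.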

Sequence | protein production
MTKIIKYTNKDNETLYKFRFYAGLDEITGKQRYIRRQGFKSEKDAKTELLKIEYLVSTNQYFKSVKSGKFGDVLDEWLALHKETVKASTWRYIERRVKNHVRPYFKDMYVDKITLRHCQDFTNKAFAAAPVGFTQIISIVKNTLDYALRLGMIESNPMLYVIKPKKQTTISDKHGNYYNKDELKKFLAAAKDTDLKKYTLFRLLAYSGLRVGECLALTWHDLDYKNNTIAINKTYAKTNNGIKIQTPKTKASIRKVSLDVETIQVLKEWQLNQRKQLLKVGINAMNKQQLIFSNNKNSFIANETVRLAIHQIAKKTGIHPITTHGFRHTHATLLFASGMDIKQVQARLGHSNVQTTLNIYTHAIQDKQDKIGDEFAKYINF | failed
MTKKKVYIVSHSHWDREWYLPYEEHHMRLIELVDNVLDLIENDPEFNSFHLDGQTIILDDYLQVRPEKKEAVKKAVQAGKLKIGPFYILQDDFLISSESNVRNMLIGHLESQKWGAPVQLGYFPDTFGNMGQTPQMMQLANLPAAAFGRGVKPIGFDNQVLESDYSSQYSEMWWEGPDQTKIFGLLFANWYSNGNEIPSEKEAAIAFWKQKLADVERYASTNHLLMMNGVDHQPVQRDITKAIALANELFPEYEFIHSNFDDYLKAVQEELPEDLGTVTGELTSQETDGWYTLANTSSARVYLKQWNTKVQRQLENIAEPLAAMAYEVTGDYPHDQFDYAWKTLLQNHPHDSICGCSVDEVHRGMMTRFENANDVGHFLADEATRQLTEAIDTSVFPEKAHPFVLFNTSGYQKTEVVTVEVEIERLPFYTGKPEDLYHELKQKATPDYQVIDPTGKAVASRIVKEDVRFGYDLPKDAFRQPYMAKYLTVELSVKEMAPFSWDSFALIQGETKAFEGSLLAQPATNEMENEFIQVKIENNGSLTIADKKTGETFSKLLTFEDTGDIGNEYIFFKPTEDQGITTENVTAEITNKENSPVKASYQIKQTVMLPVAADERLEEEQKAVREFRERLAQRSTTLRPFEITTMVTMIKESNQLFFETTINNQIKDHRLRVLFPTGMVTETHEADSIYEVVTRPNQVSDTWENPTNPQHQQAFVNVHDQNKGVTIFNEGLNEYEVLADGTIAVTLIRCVGELGDWGYFATPEAQCQGEYTFKYGLSLHGKPEERFATYQQAYSAQIPFTAATTARHEGKLAPNHVYLTTAEGPIGWTAVKRQEQTNHLVVRGFNLTAQNIPCELHKETQPATCLTNVLEEPLTPAIEVDAPLRPFEIRTWRFEK | not failed
MTKLGYVMTKSSAKNFKIYINGSAKGFKNIIISGAKAWNPSPYLNTVSIGNDVRPNYTVSSSGTNKGSVLAVCNTTYYKSNKLISKNEITLYKGFRSLSTNHKIETIVHEFGHGFGLGHVKTKNAIMLDKGFINKTKPQTDDFNGIKALYKLEHHHHHH | not failed
MTKNEEGRVRRFVIRYVGSGRVPPCWIAGIFALCWGGVALAGGVALQSVDFTALPSENFQLRLGFDGPVPEPRSFTTEHPARIALDLAGVRSDLDKKPIPVHQAGVETVQAIAAGGRTRVILNLATAVPYTTRVAGRFLYVTLQSGKAGSRADDSASAPVVVTERPVVGGPQVESIDFRRGEKGEGRLLVALSDPNSLINLREEGRSVVADLPGTSLPGRLARRLEVIDFATPVKWVEAMPVGRGARLLITPVSDEYDYSSYQSGKLLTVELRPLSRAEKEEAKKRRLVFAGERLSLNFQDIPVRNVLQILADFTNLNIVASDSVQGSVTLRLNEVPWDEALDLVLKAKGLGKRQEANSNVIRVAPLDEINRSERDELEALKVVEDLEPLRTEIIQINYTKADDIKKVIMGTTEKAEKAITRPEALTGGPGVTSTEAYDVTQSILSSRGNVTTDPRTNQLIVQDTPRNLERIRDLVRQLDKPVRQVMIESRVVIANVDFLRELGAKLDFRPKNLTAAERLNPTGSMADLGVDLAKLTTLSPYGTAQYVVSMGDYLLDLELSAAQKEGRGEIVANPRVLTADQSKAKIMQGVELPYQITQQGTGGGIPVQNVAFKPAVLELDVTPHITPDDHILMDLMVKKDDKGELAPNGNFAIEKREIDTVAQVANGETVVLGGVYEGTRRNNTDKVPFFGDLPGIGFMFRRNAVEDRKKELLIFITPKIVKQTSMTP | failed
MTKNTRFSPEVRQRAVRMVLESQGEYDSQWATICSIAPKIGCTPETLRVWVRQHERDTGGGDGGLTTAERQRLKEPERENRELRRSNDILRQASAYFAKAEFDRLWKK | failed
MTKQSKTQIRICFVGDSFVNGTGDPECLGWTGRVCVNANKKGYDVTYYNLGIRRDTSSDIAKRWLQEVSLRLHKEYNSLVVFSFGLNDTTLENGKPRVSIAETIKNTREILTQAKKLYPVLMISPAPYIEQQDPGRRRRTIDLSQQLALVCQDLDVPYLDVFPLLEKPSVWLHEAKANDGVHPQAGGYTEFARIVENWDAWLNWFR | not failed
MTKRHVSLPADAKDVRRAFVSGVDERLSAAETPDELATAVTGTLADLRGERDAYEAWRDGDDVRPAAAARLATLDPRNASLESEYYAEKDEAAFARSKPLQWLWRQFDTTPLADNVDVALPFRRMLAGHLFAGVGEDVRLFKGITMTYGHNIELGDNAVVHDGVHLDDRGELVVGARASVSNGAHLYTHDHDVVDQTDVTNYRTEIGADARVTQGALVRAGVRVGENALVGSRSVVQGDVPAHHIAVGSPAESVRVKPGWEAVAAPLDAGLEHHHHHH | not failed
MTKSPARLISFISIAIAINLVGANLALFLRLPIYLDTIGTLLIAVILGPWYAASTAFLSALINWMTTDIFSLYYSPVAIVVAIITGILIKRNCKPSSLLWKSLIISLPGTIIASVITVILFKGITSSGSSIIAQFLHGIGLDMTSSLILVQVGTDYMDRLISLILVFSTITLLKKHSPNLINQRF | failed
MTKTLRTPEHVYLCQRLRQARLDAGLTQADLAERLDKPQSFVAKVETRERRLDVIEFAKWMAACEGLDVVSEIVATIAEGRAQA | not failed
MTKVIVVNGPNLGRLGVRQPDVYGRQDLDTLRKLCAEWGKDLGLEVEVRQTDDEAEMVRWMHQAADEKTPVVMNPAAFTHYSYALADAAHMVIDENLPLMEVHISNPSARDEFRKRSVISPVATGTITGMGFYGYKLALDAVAHLLSE | not failed
MTKVLFVKANNRPAEQAVSVKLYEAFLASYKEAHPNDTVVELDLYKEELPYVGVDMINGTFKAGKGFDLTEEEAKAVAVADKYLNQFLEADKVVFGFPLWNLTIPAVLHTYIDYLNRAGKTFKYTPEGPVGLIGDKKIALLNARGGVYSEGPAAEVEMAVKYVASMMGFFGATNMETVVIEGHNQFPDKAEEIITAGLEEAAKVANKF | not failed
MTLAACMQEADQLQHWREKCWRPFFRVDEEILNIHNEQLGINEDHLHGAQSIHVASNIRARKVFEFPYLQTSMKPEDAGVDAILSKFNIMIYSYKDAAYPFRMVPPIVYAHLAILRVNAGDLTSSDTWRLYM | failed
MTLDANSAPVRDMASAHFSPGEDCRRKIRDLCRQARISVDICVFTISDDQLSDEIRACHQRGVAVRVISDSEKQFDVGSDIAALREAGVPVRIDDTPFHMHHKFAVFDGRTLLNGSFNWTRSATTGNEENLLVIDHPQLVASYLKEFNELWSRYAPRLEHHHHHH | failed
MTLEKKEYGAPGFWPGSMIGRVHAFETPAPLTRAQLDRLRDEFFETRTEGHLEIWTAIRAASHAQEAGDDELAYAIITAVGILPAEVGPAGEGLGERIPFAEQPLDRLLGMICGCCFPAFTRYRTLERVYDQRGFLYETPKECIATPSNVLPDESTEASAR | not failed
MTLETISSLLPMSAAGLAAVVSALAALGLGLGLWCARHRLRLLTAALEASGCGLITIEGGTRVFQANRQAARLLGRPEGLARDTQARKLFGGTLTAAVQGPGDGQPVRGTAHRPDHGWFPATLQSLGPCGGFARQRRLWLLRDLSDAQELERLRETEERFNASQRFGRIGVWDWNTETNEVFWSEEVFPMFGFTPAEITPTYDLFIAMVHPDDFVALTDSERACLSGTTLHDQEYRVIWRDGSVHWIRETADVLRESDGTPRRMVGVIREVTEEKEAQRQALRIAMLDPLTGLPNRATFLERLEADLGQVDETGVAVPLALAFIDLDDFKPINDTYGHLMGDRVLMTIAKRLSEAVRPQDMVARVGGDEFVALLRGCRDGARARTVAARLLDAVTAPVSIDTVIHRVRASIGISLYPSLVSTGDDLIATADQAMYVAKRAGGDPIRLHGE | failed
MTLHLPGADGTLRAYEPRTEPLPTLRATSGSAFSSRTVFSAAHVVADPYADTTPDGPAAVDWDATLAFRRHLWSHGLGVAEAMDTAQRGMGLDWPTAAELIRRSAAEARATGGRIACGVGTDQLTATAATLADVRSAYEEQLAVVEESGAQAILMASRALAATAKGPDDYLEVYGHLLRQAAEPVILHWLGPMFDPALEGYWGSSDLDAATDTFLEVIAAHPDKVDGIKVSLLDAQREIDLRRRLPRGVRCYTGDDFNYPELIAGDEQGFSHALLGIFDPLGPLAAEAVRVLDTGDTDGFRALLDPTVELSRHLFRAPTRYYKTGVVFLAWLAGHQSHFTMVGGLQSARSLPHLARAYELADGLGLFPDPKPAEERMRNLLALYGVNA | failed
MTLKLKDKNTMLNSEKMVASIEKQDLHHADKYLKKALNEDPAEVLVELAEYLESIGFLPQAQEIYEKVRFDFPEVNVNLAQIAAEDGNIEEAFLYLDAIPEESEDYLSALIVKADLYQMEGLTDVARDKLLEASQLSDDSLIIFGLAEMEFELGNFEQAIQYYAKLDNRDLLATTGVSTYERIGKSYASLGKFEAAREFLEKAIEIEYNDTIAFELATLLYDQEEYQKANFYFKQIETMSSDFEGYEYNYALSLHAEHRTEEALRMTQQGISKNAFDVQLLLLASQLSYELHDTQSAESYLKQALPLAEDNDEIVLRLSALYLEEERFDDLVALADYEVDSVLARWNIARAYQALDDEEEAFQIYQDLSKDLADNPEFLQDYAYILREFGYRDQARVTAEKYLALVPDDVNMQTFLEDY | failed
MTLLDSMIVMIYLLFIGIAAWLFRRFSTSSNDFLQGGGTMMWWMAGATAFMTQFSAWTFTGAAAKAYEDGISVMFIFWGNALGFFVAAAFFARRYRRLRVETAMEVIRVRFGHTSEQLFTWLSFPLTLIACAIWMNGLASFFSAVFAIEMSTTILAMGVIVTLIAVSGGAWTVSVTNVIQLVLLIAITLVIGYTALQHFDSPSEVFAYTTPIYGEQIRMPSLFVMWAIAMLLQQTMSNNHTLSCYRFLTTANDKDATKAAFVAGVLFVFAPVLWFMPAWFVAAQNIDLLAIYPALEQSANNAAYLYYIQHYMPQGLLGLVMVALVAATIAPLSSAHNRNAGIVVKSLYQVWFNPNATSRQQLMVGKIATIVSGILATVTALLLASVESYSLFDMMIVFAAFIQMPINIPSLLALVSLKTPNWSGWATVMVGCVVSLFMMFIFDVQWISSSPLTPRESKDLSVVATLAVHLLVTGGFFLSTRVFYAKESPSIQQSRTALSIQLATPISDEELSPINHKQGLYVGSITALAGMLLILAGVVLAGSSQSIFVAIGCIVLLFSLFLLQPTLHSKRAWQKQKTK | failed
MTLLFRYLFRNNLQVILPTLAVGTGLYLLSDLFDRLDDILEAGVPGNVAIWYFVAKTPLIISQILPAVFLLAALIQLCLMSRDRELMALQAGGVSFGAIARFFVVYGLLWAVLQLGFSQVLGVAGERESARIWQEQVRGRTPGTRDLTNVWFTDDNHVIHLEVVTPALRKGQGFAAYGLAADGIHIDTVIRAKAFTGTAGTWKLQDVEVFSTRDFGHAKLPEMSIAIGQDPQDFAVIDPGADPQRLPLWQLGDAVEKLRTAGSNVEGLRTAWHMKLAYAASLVVMGLLAVAMVTWRDNIYLATGLALVFTFLFYTMFTIGSTLGQKGIVSPPIAAWGADILVGVVASARLLLVLRPRSLR | failed
MTLLNDIQVWTTACAYDHLIPGRGVGVLLDDGSQVALFRLDDGSVHAVGNVDPFSGAAVMSRGIVGDRGGRAMVQSPILKQAFALDDGSCLDDPRVSVPVYPARVTPEGRIQVARVAV | failed
MTLNIYTEEWAPISFSVDGKPDGLAVQVVQEIQKRIDNQDPIKVVPWARGWKIITEQPNTVLFTMTRTAERERMFSLIGPVAVGTTNFYALKNSNLEHHHHHH | failed
